Measured values as given in publication PMC7335806.

Experiments:
[1] = immunofluorescence, surface localisation in COS7 cells; conditions: glycan lost; control: HA-Fzd6wt
[2] = in vitro vesicle formation assay, immunoblot; conditions: glycan lost; control: Fzd6WT

B1: Frizzled-6 (Fzd6): N38A, N352A (protein)
parent chain: MERSPFLLACILLPLVRGHSLFTCEPITVPRCMKMTYNMTFFPNLMGHYDQGIAAVEMGHFLHLANLECSPNIEMFLCQAFIPTCTEQIHVVLPCRKLCEKIVSDCKKLMDTFGIRWPEELECNRLPHCDDTVPVTSHPHTELSGPQKKSDQVPRDIGFWCPKHLRTSGDQGYRFLGIEQCAPPCPNMYFKSDELDFAKSFIGIVSIFCLCATLFTFLTFLIDVRRFRYPERPIIYYSVCYSIVSLMYFVGFLLGNSTACNKADEKLELGDTVVLGSKNKACSVVFMFLYFFTMAGTVWWVILTITWFLAAGRKWSCEAIEQKAVWFHAVAWGAPGFLTVMLLAMNKVEGDNISGVCFVGLYDLDASRYFVLLPLCLCVFVGLSLLLAGIISLNHVRQVIQHDGRNQEKLKKFMIRIGVFSGLYLVPLVTLLGCYVYELVNRITWEMTWFSDHCHQYRIPCPYQANPKARPELALFMIKYLMTLIVGISAVFWVGSKKTCTEWAGFFKRNRKRDPISESRRVLQESCEFFLKHNSKVKHKKKHGAPGPHRLKVISKSMGTSTGATTNHGTSAMAIADHDYLGQETSTEVHTSPEASVKEGRADRANTPSAKDRDCGESAGPSSKLSGNRNGRESRAGGLKERSNGSEGAPSEGRVSPKSSVPETGLIDCSTSQAASSPEPTSLKGSTSLPVHSASRARKEQGAGSHSDA
**Q.** Which results are given for B1?
**A.** localisation_or_trafficking [1]: decreases; localisation_or_trafficking [2]: decreases
